From PMC5928161

Each substance was assayed against FLAG-tagged a3 isoform of the V-ATPase a subunit (mouse) (UniProt Q9JHF5) (assay: co-immunoprecipitation (anti-FLAG IP, anti-V5 Western blot)). Details: HEK293T cells; intensity of V5-fused GTP-binding protein co-precipitated with a3 normalised to that of V5-Rab7.
UniProt Q9JHF5, sequence (Q9JHF5 entry or part of it): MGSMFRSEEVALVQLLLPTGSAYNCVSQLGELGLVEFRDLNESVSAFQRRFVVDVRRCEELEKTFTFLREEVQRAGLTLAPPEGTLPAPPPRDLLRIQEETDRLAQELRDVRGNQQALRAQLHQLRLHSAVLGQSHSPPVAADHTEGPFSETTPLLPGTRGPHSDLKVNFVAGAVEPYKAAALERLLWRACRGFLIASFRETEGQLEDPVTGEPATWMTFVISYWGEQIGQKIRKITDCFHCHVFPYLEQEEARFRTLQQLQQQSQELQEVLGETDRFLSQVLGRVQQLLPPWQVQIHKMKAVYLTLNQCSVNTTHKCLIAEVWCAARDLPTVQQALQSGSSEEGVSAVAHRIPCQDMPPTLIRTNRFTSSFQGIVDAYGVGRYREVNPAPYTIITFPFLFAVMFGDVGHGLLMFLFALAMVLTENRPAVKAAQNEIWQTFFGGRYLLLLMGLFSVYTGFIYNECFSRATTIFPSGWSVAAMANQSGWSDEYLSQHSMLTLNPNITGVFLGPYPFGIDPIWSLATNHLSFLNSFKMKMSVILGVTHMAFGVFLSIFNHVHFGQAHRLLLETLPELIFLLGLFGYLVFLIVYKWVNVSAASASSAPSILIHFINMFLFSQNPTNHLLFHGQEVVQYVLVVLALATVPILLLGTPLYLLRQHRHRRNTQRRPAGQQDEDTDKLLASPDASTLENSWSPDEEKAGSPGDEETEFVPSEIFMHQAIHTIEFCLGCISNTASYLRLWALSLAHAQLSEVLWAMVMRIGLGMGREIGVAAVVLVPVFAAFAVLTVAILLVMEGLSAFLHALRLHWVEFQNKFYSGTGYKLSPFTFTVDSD

other: relative signal intensity | Substance
< 0.1 | H-Ras W D (substitution not printed)
< 0.1 | H-Ras W C (substitution not printed)
< 0.1 | Ran W D (substitution not printed)
< 0.1 | Ran W C (substitution not printed)
